Experimental data taken from patent US20240317834A1, “COMPOSITIONS AND METHODS FOR NEUROLOGICAL DISEASES” (CODA BIOTHERAPEUTICS, INC., priority 2020, published 2024).

Assays:
rat DRG neurons = test: Rheobase shift and evoked action potentials in rat DRG neurons (current clamp); format: cell-based
Protocol: Using whole cell manual patch clamp electrophysiology in HEK293 cells, rat DRG neurons and rat hippocampal neurons, the EC50 of the various engineered receptors disclosed herein to Ach and non-native ligands was measured using the Hill equation with peak current measurements from escalating doses of ligand. The rheobase shift was also measured in rat DRG neurons, which reflects the efficacy of the receptors. To calculate the rheobase, first, the amount of current that can produce an action potential was determined. Then the ligand was added, followed by a step wise increase in the current injected up to 700 pA.
For manual patch clamp experiments, Cells plated on coverslips were visualized at 10× and 40× on an inverted fluorescence microscope (Olympus). Recordings were made with an Axopatch 200B amplifier and Digidata 1550B (Molecular Devices) at RT using 3-6 MOhm glass patch electrodes (Sutter, BF150-86-10). Unless otherwise stated, recordings were made in extracellular solution (ECS) containing: 140 mM sodium chloride, 4 mM potassium chloride, 1 mM magnesium chloride, 2 mM calcium chloride, 10 mM HEPES, and 10 mM D-(+)-glucose (pH=7.3 with sodium hydroxide, osmolarity=305−315 mOsm). An 8-line reservoir (AutoMate Scientific) in combination with an 8-channel zero-dead-volume perfusion pencil (AutoMate Scientific) was used for perfusion. Data was acquired using pClamp software (Molecular Devices). Traces were either analyzed in Clampfit (Molecular Devices) or using custom Python code. Plotting and statistics were performed in GraphPad Prism.
DRG rheobase experiments were performed in current clamp mode using a potassium-based internal solution containing: 100 mM potassium D-gluconate, 28 mM potassium chloride, 1 mM magnesium chloride hexahydrate, 5 mM magnesium ATP, 10 mM HEPES, and 0.5 mM EGTA (pH=7.2 with potassium hydroxide, osmolarity=290-295 mOsm, calculated liquid junction potential=−13.5 mV). To measure DRG input resistance and rheobase, 500 ms current steps (−200 pA to 700 pA) were applied the membrane in the presence and absence of a compound. No holding current was applied to the membrane for cells included in the final datasets. Data were acquired at 10 kHz, with Bessel filter at 2 kHz and series resistance compensation at 100%. Rheobase was defined as the smallest depolarizing current injection required to cause an action potential to fire in the cell. In a subset of cells, the rheobase was ambiguous, since the action potential appeared to be graded in amplitude. In these cases, a […] of the trace clarified the rheobase. Input resistance was measured from the negative current injections, calculated as the difference in membrane potential at steady state divided by the current injection amplitude and then averaged across the four negative current steps for each recording. Resting membrane potential was measured from the first 100 ms of each sweep, averaged for each recording, and corrected for liquid junction potential. One-way ANOVA with multiple comparisons was used to test for significance of difference in rheobase and input resistance between baseline, drug, and wash conditions.

Lenti-X 293T cells = test: YFP fluorescence quenching anion reporter plate reader assay of engineered receptors stimulated with acetylcholine or a non-native ligand; format: cell-based
Summary of the method: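 Lenti-X 293T cells carrying a YFP anion reporter were transiently transfected with channel DNA and assayed the next day in HEPES-buffered ECS at pH 7.2. Ligand (acetylcholine or non-native ligand) was added in NaI-substituted ECS. Percent quench was the mean of the last 10 s relative to the 15 s pre-addition baseline.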

B1: CODA1045: engineered chimeric LGIC receptor, R101W, Y210V in SEQ ID NO: 33 (protein)
chain: MRCSPGGVWLALAASLLHVSLQGEFQRKLYKELVKNYNPLERPVANDSQPLTVYFSLSLLQIMDVDEKNQVLTTNIWLQMSWTDHYLQWNVSEYPGVKTVWFPDGQIWKPDILLYNSADERFDATFHTNVLVNSSGHCQYLPPGIFKSSCPMDLKNFPMDVQTCKLKFGSWSYGGWSLDLQMQEADISGYIPNGEWDLVGIPGKRSERFVECCKEPYPDVTFTVTMRRRMGYYLIQMYIPSLLIVILSWISFWINMDAAPARVGLGITTVLTMTTQSSGSRASLPKVSYVKAIDIWMAVCLLFVFSALLEYAAVNFVSRQHKELLRFRRKRRHHKSPMLNLFQEDEAGEGRFNFSAYGMGPACLQAKDGISVKGANNSNTTNPPPAPSKSPEEMRKLFIQRAKKIDKISRIGFPMAFLIFNMFYWIIYKIVRREDVHNQ
modifications: synthetic sequence of chimeric LGIC
- Rheobase Shift; Rat DRG Neurons, +TC-5619 @ EC90 (rat DRG neurons; +TC-5619 @ EC90): 700 ± 0 pA
- Rheobase Shift; Rat DRG Neurons, Baseline (rat DRG neurons; Baseline, no ligand): 141 ± 22 pA
- YFP fluorescence quenching using CNL001 (Lenti-X 293T cells; 1 nM CNL001, first column): 0.804%
- YFP fluorescence quenching using CNL001 (Lenti-X 293T cells; 1 nM CNL001, second column): 11.275%
- YFP fluorescence quenching using TC-5619/Bradanicline (Lenti-X 293T cells; 1 nM brd): −1.431%
- YFP fluorescence quenching using TC-5619/Bradanicline (Lenti-X 293T cells; 3 nM brd): −14.993%
- YFP fluorescence quenching using Varenicline (Lenti-X 293T cells; 3 nM var, first column): 6.745
- YFP fluorescence quenching using Varenicline (Lenti-X 293T cells; 3 nM var, second column): 8.397
- YFP fluorescence quenching using CNL001 (Lenti-X 293T cells; 10 nM CNL001, first column): 15.843%
- YFP fluorescence quenching using CNL001 (Lenti-X 293T cells; 10 nM CNL001, second column): 16.619%
- YFP fluorescence quenching using TC-5619/Bradanicline (Lenti-X 293T cells; 10 nM brd): −5.52%
- YFP fluorescence quenching using TC-5619/Bradanicline (Lenti-X 293T cells; 30 nM brd): 15.49%
- YFP fluorescence quenching using Varenicline (Lenti-X 293T cells; 30 nM var, first column): 14.1
- YFP fluorescence quenching using Varenicline (Lenti-X 293T cells; 30 nM var, second column): 19.095
- YFP fluorescence quenching using CNL001 (Lenti-X 293T cells; 50 nM CNL001, first column): 15.205%
- YFP fluorescence quenching using CNL001 (Lenti-X 293T cells; 50 nM CNL001, second column): 18.771%
- YFP fluorescence quenching using ABT-126 (Lenti-X 293T cells; 50 nM abt): −24.16%
- YFP fluorescence quenching using CNL001 (Lenti-X 293T cells; 100 nM CNL001, first column): 9.332%
- YFP fluorescence quenching using CNL001 (Lenti-X 293T cells; 100 nM CNL001, second column): 18.218%
- YFP fluorescence quenching using ABT-126 (Lenti-X 293T cells; 100 nM abt): −24.7%
- YFP fluorescence quenching using TC-5619/Bradanicline (Lenti-X 293T cells; 100 nM brd): 72.105%
- YFP fluorescence quenching using ABT-126 (Lenti-X 293T cells; 300 nM abt): −16.09%
- YFP fluorescence quenching using TC-5619/Bradanicline (Lenti-X 293T cells; 300 nM brd): 71.411%
- YFP fluorescence quenching using Varenicline (Lenti-X 293T cells; 300 nM var, first column): 16.83
- YFP fluorescence quenching using Varenicline (Lenti-X 293T cells; 300 nM var, second column): 21.507
- YFP fluorescence quenching using Varenicline (Lenti-X 293T cells; 500 nM var, first column): 21.586
- YFP fluorescence quenching using Varenicline (Lenti-X 293T cells; 500 nM var, second column): 23.131
- YFP fluorescence quenching using CNL001 (Lenti-X 293T cells; 1 uM CNL001, first column): 35.294%
- YFP fluorescence quenching using CNL001 (Lenti-X 293T cells; 1 uM CNL001, second column): 36.542%
- YFP fluorescence quenching using ABT-126 (Lenti-X 293T cells; 1 uM abt): −11.61%
- YFP fluorescence quenching using Varenicline (Lenti-X 293T cells; 1 uM var, first column): 31.591
- YFP fluorescence quenching using Varenicline (Lenti-X 293T cells; 1 uM var, second column): 26.479
- percent quench of YFP fluorescence, 30 nM TC-6683 (Lenti-X 293T cells; TC-6683 30 nM): 1.735%
- percent quench of YFP fluorescence, 300 nM TC-6683 (Lenti-X 293T cells; TC-6683 300 nM): 0.642%
- percent quench of YFP fluorescence, 3 uM TC-6683 (Lenti-X 293T cells; TC-6683 3 uM): 2.403%
- percent quench of YFP fluorescence, 30 uM TC-6683 (Lenti-X 293T cells; TC-6683 30 uM): 6.006%
- percent quench of YFP fluorescence, 100 uM TC-6683 (Lenti-X 293T cells; TC-6683 100 uM): −4.277%
- percent quench of YFP fluorescence, 10 uM ach (Lenti-X 293T cells; acetylcholine 10 uM): −2.52%
- percent quench of YFP fluorescence, 100 uM ach (Lenti-X 293T cells; acetylcholine 100 uM): −11.98%
- percent quench of YFP fluorescence, 300 uM ach (Lenti-X 293T cells; acetylcholine 300 uM): −16.71%
- percent quench of YFP fluorescence, 500 uM ach (Lenti-X 293T cells; acetylcholine 500 uM): −12.87%
- percent quench of YFP fluorescence, 1 mM ach (Lenti-X 293T cells; acetylcholine 1 mM): −14.41%
- percent quench of YFP fluorescence, 3 mM ach (Lenti-X 293T cells; acetylcholine 3 mM): −7.4%
- percent quench of YFP fluorescence, 10 mM ach (Lenti-X 293T cells; acetylcholine 10 mM): −1.5%
